# Publication PMC10306066
# Molecular target: Ralstonia solanacearum lectin (Ralstonia solanacearum)
# Experiment: crystal structure
substance,measurement,value
Ralstonia solanacearum lectin (natural protein),stoichiometry N,3
